Measurements: US20240424125A1 (Zymeworks, published 2024)
Residue numbers refer to the chain shown, from its start.

B1: v30389 (antibody, human IgG1, kappa)
heavy 1: EVQVLESGGGLVQPGGSLRLSCAVSGFSLSSYGVSWVRQAPGKGLEWIGAVNSGGSAYYADSVKGRSTISRDNSKNTVYLQMNSLRAEDTAVYYCARSGSGYPMDYLAIWGQGTLVTVSSASTKGPSVFPLAPSSKSTSGGTAALGCLVKDYFPEPVTVSWNSGALTSGVHTFPAVLQSSGLYSLSSVVTVPSSSLGTQTYICNVNHKPSNTKVDKKVEPKSCDKTHTCPPCPAPELLGGPSVFLFPPKPKDTLMISRTPEVTCVVVDVSHEDPEVKFNWYVDGVEVHNAKTKPREEQYNSTYRVVSVLTVLHQDWLNGKEYKCKVSNKALPAPIEKTISKAKGQPREPQVYVYPPSRDELTKNQVSLTCLVKGFYPSDIAVEWESNGQPENNYKTTPPVLDSDGSFALVSKLTVDKSRWQQGNVFSCSVMHEALHNHYTQKSLSLSPG
heavy 2: not shown
light: DYQMTQSPSSVSASVGDRVTITCRASQSIGDWLAWYQQKPGKAPKLLIYEASTLASGVPSRFSGSGSGTDFTLTISSVQPEDAATYYCQQGYGRSNVDNIFGGGTKVEVKRTVAAPSVFIFPPSDEQLKSGTASVVCLLNNFYPREAKVQWKVDNALQSGNSQESVTEQDSKDSTYSLSSTLTLSKADYEKHKVYACEVTHQGLSSPVTKSFNRGEC
notes: Humanized IgG1/kappa, HetFc; also called 3bH4L
B2: v31422 (antibody, human IgG1, kappa)
heavy: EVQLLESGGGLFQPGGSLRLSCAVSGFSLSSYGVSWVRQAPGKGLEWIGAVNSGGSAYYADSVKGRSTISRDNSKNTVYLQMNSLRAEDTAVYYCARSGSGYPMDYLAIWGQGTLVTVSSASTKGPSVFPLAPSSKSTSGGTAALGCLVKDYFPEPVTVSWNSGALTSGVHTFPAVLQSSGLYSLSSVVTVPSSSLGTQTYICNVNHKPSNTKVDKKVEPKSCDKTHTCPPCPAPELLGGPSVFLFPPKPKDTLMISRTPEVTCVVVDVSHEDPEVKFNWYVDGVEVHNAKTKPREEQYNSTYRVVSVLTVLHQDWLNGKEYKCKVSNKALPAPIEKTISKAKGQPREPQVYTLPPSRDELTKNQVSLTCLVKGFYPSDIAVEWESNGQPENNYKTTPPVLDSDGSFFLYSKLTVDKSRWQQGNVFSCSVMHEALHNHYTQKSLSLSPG
light: B1 light
notes: Humanized IgG1/kappa, HomoFc; also called 3cH4L
B3: v30384-MC-GGFG-AM-DXd1 (antibody, human IgG1, kappa)
heavy 1: B1 heavy 1 with V4L
heavy 2: not shown
light: B1 light
modifications: drug-linker MC-GGFG-AM-DXd1 on the antibody at DAR 8; conjugated residues not stated
B4: v30384-MT-GGFG-AM-Compound 139 (antibody, human IgG1, kappa)
heavy 1: B1 heavy 1 with V4L
heavy 2: not shown
light: B1 light
modifications: drug-linker MT-GGFG-AM-Compound 139 on the antibody at DAR 8; conjugated residues not stated
B5: v30384-MC-GGFG-AM-Compound 141 (antibody, human IgG1, kappa)
heavy 1: B1 heavy 1 with V4L
heavy 2: not shown
light: B1 light
modifications: drug-linker MC-GGFG-AM-Compound 141 on the antibody at DAR 8; conjugated residues not stated
B6: v30384-MT-GGFG-Compound 141 (antibody, human IgG1, kappa)
heavy 1: B1 heavy 1 with V4L
heavy 2: not shown
light: B1 light
modifications: drug-linker MT-GGFG-Compound 141 on the antibody at DAR 8; conjugated residues not stated
B7: v30384-MC-GGFG-Compound 140 (antibody, human IgG1, kappa)
heavy 1: B1 heavy 1 with V4L
heavy 2: not shown
light: B1 light
modifications: drug-linker MC-GGFG-Compound 140 on the antibody at DAR 8; conjugated residues not stated
B8: v30384-MT-GGFG-Compound 140 (antibody, human IgG1, kappa)
heavy 1: B1 heavy 1 with V4L
heavy 2: not shown
light: B1 light
modifications: drug-linker MT-GGFG-Compound 140 on the antibody at DAR 8; conjugated residues not stated
B9: v30384-MT-GGFG-Compound 148 (antibody, human IgG1, kappa)
heavy 1: B1 heavy 1 with V4L
heavy 2: not shown
light: B1 light
modifications: drug-linker MT-GGFG-Compound 148 on the antibody at DAR 8; conjugated residues not stated
B10: v35342 (antibody, human IgG1, kappa, V domains shown)
VH: EVQLLESGGGLVQPGGSLRLSCAVSGFSLSLYGVSWVRQAPGKGLEWIGSLNSGGSAYYADSVKGRSTISRDNSKNTVYLQMNSLRAEDTAVYYCARSGSGYPMDYLAIWGQGTLVTVSS
VL: DYQMTQSPSSVSASVGDRVTITCRASQSIWYWLAWYQQKPGKAPKLLIYEASTLASGVPSRFSGSGSGTDFTLTISSVQPEDAATYYCQQGYGRWHILNIFGGGTKVEVKR
B11: v35347 (antibody, human IgG1, kappa, V domains shown)
VH: B10 VH with S50A, L51V, V63F, L107H, A108P
VL: B10 VL with W30G, Y31D, W95S, H96N, I97V, L98D
B12: v35350 (antibody, human IgG1, kappa, V domains shown)
VH: B10 VH with S50A, L51V, V63F, L107H, A108P
VL: B10 VL
B13: v35354 (antibody, human IgG1, kappa, V domains shown)
VH: B10 VH with S50A, L51V, V63F
VL: B10 VL
B14: v35358 (antibody, human IgG1, kappa, V domains shown)
VH: B10 VH with L31S, S50A, L51V, V63F, L107H, A108P
VL: B10 VL
B15: v36167 (antibody, human IgG1, kappa, V domains shown)
VH: B10 VH with L31S, S50A, L51V, V63F
VL: B10 VL
B16: v36168 (antibody, human IgG1, kappa, V domains shown)
VH: B10 VH with L51V
VL: B10 VL

Each binder was assayed against T1, recombinant His-tagged human FRα (ACROBiosystems) (human, UniProt P15328 25-233) (assay: BLI (Octet RED96): antibody on anti-human IgG Fc capture biosensor, His-tagged hFRα as analyte, 1:1 global fit, mean of n=2).
T1 construct: also called hFRα; hFRα antigen; not shown: His tag
Method: (§1) The assay buffer used was KB buffer (kinetics buffer, composed of PBS pH 7.4, 0.1% BSA, 0.02% Tween 20, 0.05% sodium azide) supplemented with 0.06% Tween 20 and in some instances also with 1% BSA. The experiment was conducted at 30° C. with a shake speed of 1000 rpm.
(§2) Data analysis was performed using Data Analysis Software 9.0 (ForteBio, Fremont CA). The reference-subtracted binding curves were globally fitted to the 1:1 interaction model to generate the binding kinetic parameters kₒₙ, koff, and the dissociation constant KD.

T1 sequence (P15328 25-233 limits assumed): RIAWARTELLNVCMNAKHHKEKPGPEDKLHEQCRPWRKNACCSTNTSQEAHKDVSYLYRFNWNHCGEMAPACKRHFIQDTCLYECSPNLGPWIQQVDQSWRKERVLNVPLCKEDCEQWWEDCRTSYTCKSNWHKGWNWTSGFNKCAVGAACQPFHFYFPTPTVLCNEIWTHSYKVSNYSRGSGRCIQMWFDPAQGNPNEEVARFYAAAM

In order of rising Kd:
1. B1  100 nM
2. B2  180 nM

Each binder was assayed against T2, human FRα on cells (human, UniProt P15328 25-234) (assay: cell-based or functional assay).
T2 sequence (P15328 25-234 limits assumed): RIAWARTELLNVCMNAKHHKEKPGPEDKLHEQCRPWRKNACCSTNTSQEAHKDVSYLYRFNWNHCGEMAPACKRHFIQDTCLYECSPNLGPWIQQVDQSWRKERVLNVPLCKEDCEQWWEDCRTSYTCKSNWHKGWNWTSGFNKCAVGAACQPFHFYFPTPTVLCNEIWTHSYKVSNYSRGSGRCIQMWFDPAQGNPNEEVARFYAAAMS

In order of falling “3D EC50 (nM), in vitro cytotoxicity, HEC-1-A spheroids, 6 days” value:
1. B5  8.5 nM
2. B7  6.7 nM
3. B6  5 nM
4. B4  3.9 nM
5. B3  1.1 nM

In order of rising “3D EC50 (nM), in vitro cytotoxicity, IGROV-1 spheroids, 6 days” value:
1. B7  0.2 nM
2. B3  0.5 nM
3. B5  0.6 nM
4. B4  1 nM
5. B6  1 nM

In order of falling “3D EC50 (nM), in vitro cytotoxicity, OVCAR-3 spheroids, 6 days” value:
1. B7  20.5 nM
2. B3  8.2 nM
3. B5  1.8 nM
4. B6  1.6 nM
5. B4  1.5 nM

In order of falling “3D EC50 (nM), in vitro cytotoxicity, T-47D spheroids, 6 days” value:
1. B7  1.6 nM
2. B4  1.1 nM
3. B3  0.9 nM
4. B5  0.4 nM
5. B6  0.4 nM

Target: T2, human FRα on cells
Assay: cell-based or functional assay
Remark: another data set of the same source

In order of rising “EC50 (nM), in vitro cytotoxicity, 2D monolayer, JEG-3 cells, 4 days” value:
1. B3  0.54 nM
2. B9  0.54 nM
3. B4  1.14 nM
4. B8  1.29 nM
5. B6  1.68 nM
6. B5  3.45 nM

In order of falling “EC50 (nM), in vitro cytotoxicity, 2D monolayer, KB-HeLa cells, 4 days” value:
1. B8  3.75 nM
2. B6  0.81 nM
3. B5  0.77 nM
4. B9  0.73 nM
5. B4  0.72 nM
6. B3  0.52 nM

In order of rising “EC50 (nM), in vitro cytotoxicity, 2D monolayer, T-47D cells, 4 days” value:
1. B5  0.43 nM
2. B6  0.44 nM
3. B4  1.12 nM
4. B3  2.08 nM
5. B9  3.45 nM
6. B8  12.4 nM

These binders were tested against T1, recombinant His-tagged human FRα … (assay: BLI (Octet RED96) as in Example 8: antibody captured, His-tagged hFRα as analyte, mean of n=2).
Method: as §1, §2

In order of rising Kd:
1. B13  3.13 nM
2. B12  3.55 nM
3. B10  4.1 nM
4. B16  4.97 nM
5. B14  7.22 nM
6. B15  7.29 nM
7. B11  8.65 nM
